Experimental data from publication PMC12607895, “CD46 is a cellular receptor for species D human adenovirus” (mBio, 2025).

Biological target: HAdV-C5 virion (human adenovirus C5 (HAdV-C5), UniProt P04133 1-952; P12538 1-571; P11818 1-581, whole virion; only the major capsid proteins listed, minor/core proteins and DNA not named)
Test: SPR; Biacore T200; CD46 or CAR amine-coupled to a CM5 chip (2,390-2,640 RU CD46, 2,380-2,870 RU CAR); whole virions as analyte, twofold series 50-12.5 µg/mL, 120 s at 30 µL/min; 25°C, HBS-EP+ (10 mM HEPES, 150 mM NaCl, 3 mM EDTA, 0.005% P20, pH 7.4); performed once
Settings: both partners purified

B1: coxsackievirus and adenovirus receptor (CAR) (receptor)
chain: LSITTPEEMIEKAKGETAYLPCKFTLSPEDQGPLDIEWLISPADNQKVDQVIILYSGDKIYDDYYPDLKGRVHFTSNDLKSGDASINVTNLQLSDIGTYQCKVKKAPGVANKKIHLVVLVKPSGARCYVDGSEEIGSDFKIKCEPKEGSLPLQYEWQKLSDSQKMPTSWLAEMTSSVISVKNASSEYSGTYSCTVRNRVGSDQCLLRLNVVPPSNKAGLIAGAIIGTLLALALIGLIIFCCRKKRREEKYEKEVHHDIREDVPPPKSRTSTARSYIGSNHSSLGSMSPSNMEGYSKTQYNQVPSEDFERTPQSPTLPPAKVAAPNLSRMGAIPVMIPAQSKDGSIV
notes: coxsackievirus and adenovirus receptor (CAR), coupled to the CM5 sensor chip; also called CXADR
Q: B1 was tested. Which Kd did it give?
A: 1.1 pM
